Non-standard residues stand in square brackets, D forms with d. No end group written: not given here. pGlu = O=C1CC[C@@H](C(=O)O)N1
Molecular target: T1, synthetic peptide (epitope peptide) corresponding to the sequence from the N terminus to position 15 of CD3
T1 construct: also called XDGNEEMGGITQTPY
T1 peptide: [pGlu]DGNEEMGGITQTPY
Assay: X-ray crystal structure of the Fab with the epitope peptide
Method: Furthermore, a sample was prepared by adding, to the obtained anti-CD3 antibody Fab fragment, a synthetic peptide (epitope peptide) which corresponds to the sequence from the N terminus to position 15 of CD3 and shown in SEQ ID NO: 14 below: XDGNEEMGGITQTPY (X: L-pyroglutamic acid) (SEQ ID NO: 14) to become 2 mM. The vapor diffusion method was used to obtain crystals from the sample by allowing the sample to stand at 20° C. under reservoir conditions of 100 mM MES buffer at pH7.0, 0.91% PEG3350, and 1.0 M sodium citrate tribasic dihydrate. These crystals were subject to X-ray crystallography based on the above-mentioned crystal structure of the anti-CD3 antibody Fab fragment alone according to a method known to those skilled in the art to obtain the crystal structure of a complex of the anti-CD3 antibody Fab fragment and the epitope peptide from the diffraction intensity data at 25 to 3.5 angstrom resolution. Its crystallographic reliability factor R (R factor) and Free R value (R free) were 18.55% and 26.53%, respectively.

B1: Anti-CD3 antibody Fab fragment (humanized anti-CD3 antibody) (Fab, V domains shown)
VH: QVQLVESGGGVVQPGRSLRLSCAASGFTFSNAWMHWVRQAPGKGLEWVAQIKAKSNNYATYYAESVKGRFTISRDDSKNSLYLQMNSLKTEDTAVYYCRYVHYGAYYGVDAWGQGTTVTVSS
VL: DIVMTQSPLSLPVTPGEPASISCRSSQSLVHSNRNTYLHWYQQKPGQAPRLLIYKVSNRFSGVPDRFSGSGSGTDFTLKISRVEAEDVGVYYCGQGTQVPYTFGQGTKLEIKR
notes: Fab made by papain cleavage of a One-arm antibody
B1: binds.

From patent publication US20220401557A1 (Chugai, published 2022)
